Positions of bridges follow the written chain, without caps; N, C: chain ends. No end group written: not given here.
B1: BACE032 (peptide)
peptide: Ac-MYCRLLGIGCG-NH2
modifications: disulfide 3-10 (inferred)
B2: BACE033 (peptide)
peptide: Ac-YCRLLGIGCG-NH2
modifications: disulfide 2-9 (inferred)
B3: BACE057 (peptide)
peptide: Ac-ESMYCALLGIGCG-NH2
modifications: disulfide 5-12 (inferred)
B4: SEQ ID NO 90 (peptide)
chain: TEESIYCRLLGLGCD
notes: not shown: M13 major coat protein; peptide fused to its N-terminus
B5: SEQ ID NO 78 (peptide)
chain: NDESVYCRLLGIGCG
notes: as for B4
B6: SEQ ID NO 69 (peptide)
chain: NMESVHCRLLGLGCG
notes: as for B4
B7: SEQ ID NO 77 (peptide)
chain: DVESVYCRLLGLGCG
modifications: not fully specified (C-terminus, bridges); cysteine pairing not given here
notes: as for B4
B8: SEQ ID NO 88 (peptide)
chain: HEDHLYCRLLGIGCG
modifications: not fully specified (C-terminus, bridges); cysteine pairing not given here
notes: as for B4
B9: SEQ ID NO 79 (peptide)
chain: TEESLYCRLLGVGCG
modifications: not fully specified (C-terminus, bridges); cysteine pairing not given here
notes: as for B4
B10: SEQ ID NO 73 (peptide)
chain: KEDSMYCRLLGLGCG
modifications: not fully specified (C-terminus, bridges); cysteine pairing not given here
notes: as for B4
B11: SEQ ID NO 84 (peptide)
chain: TDESIYCRLLSIACG
modifications: not fully specified (C-terminus, bridges); cysteine pairing not given here
notes: as for B4
B12: SEQ ID NO 70 (peptide)
chain: NEESIYCRLLGLGCG
modifications: not fully specified (C-terminus, bridges); cysteine pairing not given here
notes: as for B4
B13: SEQ ID NO 91 (peptide)
chain: AEESIYCRLLGLGCG
modifications: not fully specified (C-terminus, bridges); cysteine pairing not given here
notes: as for B4
B14: SEQ ID NO 72 (peptide)
chain: NEESIYCRLLGLACG
modifications: not fully specified (C-terminus, bridges); cysteine pairing not given here
notes: as for B4
B15: SEQ ID NO 74 (peptide)
chain: VEESIYCRLLGLGCG
notes: as for B4
B16: SEQ ID NO 87 (peptide)
chain: YEESIYCRLLGLGCG
modifications: not fully specified (C-terminus, bridges); cysteine pairing not given here
notes: as for B4
B17: SEQ ID NO 83 (peptide)
chain: YEESIYCRLLGIGCG
modifications: not fully specified (C-terminus, bridges); cysteine pairing not given here
notes: as for B4
B18: SEQ ID NO 94 (peptide)
chain: NDEHMYCRLLGLDCN
modifications: not fully specified (C-terminus, bridges); cysteine pairing not given here
notes: as for B4
B19: SEQ ID NO 86 (peptide)
chain: NEENMYCRLMGIGCG
modifications: not fully specified (C-terminus, bridges); cysteine pairing not given here
notes: as for B4
B20: SEQ ID NO 95 (peptide)
chain: NDENMYCRLLGLGCA
modifications: not fully specified (C-terminus, bridges); cysteine pairing not given here
notes: as for B4
B21: SEQ ID NO 92 (peptide)
chain: NEVSLYCRLLDLGCG
modifications: not fully specified (C-terminus, bridges); cysteine pairing not given here
notes: as for B4
B22: SEQ ID NO 85 (peptide)
chain: KEESIYCRLLGHGCG
modifications: not fully specified (C-terminus, bridges); cysteine pairing not given here
notes: as for B4
B23: SEQ ID NO 82 (peptide)
chain: NDDSLYCRLLGLGCG
modifications: not fully specified (C-terminus, bridges); cysteine pairing not given here
notes: as for B4
B24: SEQ ID NO 81 (peptide)
chain: NVEHIHCRLLGLGCG
modifications: not fully specified (C-terminus, bridges); cysteine pairing not given here
notes: as for B4
B25: SEQ ID NO 71 (peptide)
chain: KEENIYCRLLSLGCS
notes: as for B4
B26: SEQ ID NO 93 (peptide)
chain: NPENNYCRLLNLGCG
notes: as for B4
B27: SEQ ID NO 89 (peptide)
chain: KEESLYCRLLGLGCG
modifications: not fully specified (C-terminus, bridges); cysteine pairing not given here
notes: as for B4
B28: SEQ ID NO 80 (peptide)
chain: KEESIHCRLLGLGCG
notes: as for B4
B29: SEQ ID NO 76 (peptide)
chain: NGDNMYCRLLGLGCE
modifications: not fully specified (C-terminus, bridges); cysteine pairing not given here
notes: as for B4
B30: SEQ ID NO 75 (peptide)
chain: IEESIYCRLLGFGCG
notes: as for B4

Target: T1, recombinant human BACE1 (rhBACE1) (human, UniProt P56817 22-457, limits assumed)
T1 sequence (P56817 22-457 limits assumed): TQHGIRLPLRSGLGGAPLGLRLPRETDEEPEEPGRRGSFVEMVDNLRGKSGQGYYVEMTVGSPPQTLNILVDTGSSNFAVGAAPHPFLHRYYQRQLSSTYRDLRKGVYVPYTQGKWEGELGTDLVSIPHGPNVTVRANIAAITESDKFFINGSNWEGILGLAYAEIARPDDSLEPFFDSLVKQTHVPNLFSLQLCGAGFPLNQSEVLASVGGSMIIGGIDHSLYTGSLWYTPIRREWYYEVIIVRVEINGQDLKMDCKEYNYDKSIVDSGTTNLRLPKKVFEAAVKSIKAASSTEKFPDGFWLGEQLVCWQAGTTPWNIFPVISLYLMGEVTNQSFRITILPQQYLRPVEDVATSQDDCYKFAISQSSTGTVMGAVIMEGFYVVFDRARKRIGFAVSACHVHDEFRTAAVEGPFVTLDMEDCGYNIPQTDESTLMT
Assay: cell-based or functional assay

Binder | Caliper (MCE) BACE1 activity assay IC50
B1 | 8.09 µM
B2 | 10.9 µM
B3 | > 10 µM

Target: T1, recombinant human BACE1 (rhBACE1)
Assay: spot phage ELISA, plate-immobilized BACE1 against BSA

Binder | fold improvement of signal/noise ratio over parent BACE017
B4 | > 5 fold
B5 | > 5 fold
B6 | > 5 fold
B7 | > 5 fold
B8 | > 5 fold
B9 | > 5 fold
B10 | > 5 fold
B11 | > 5 fold
B12 | > 5 fold
B13 | > 5 fold
B14 | > 5 fold
B15 | > 5 fold
B16 | > 5 fold
B17 | > 5 fold
B18 | > 5 fold
B19 | > 5 fold
B20 | > 5 fold
B21 | > 5 fold
B22 | > 5 fold
B23 | > 5 fold
B24 | > 5 fold
B25 | > 5 fold
B26 | > 5 fold
B27 | > 5 fold
B28 | > 5 fold
B29 | > 5 fold
B30 | > 5 fold

— patent US20140228277A1 (Genentech, published 2014)
